The source of these data is paper PMC6940538 (Angewandte Chemie (International ed. in English), 2019).

The data set “crystal structure” deals with the molecule itself. In words: crystal structure.
The data set “SEC” deals with the molecule itself. The data set can be described thus: SEC. A general note: In gel filtration, larger molecules generally elute earlier.
The data set “AUC” deals with the molecule itself. In words: AUC.

B1: MtmW (ΔN3) (enzyme, Streptomyces argillaceus, UniProt Q194Q1 4-326, looked up)
chain: VEFRSLGRSGLSVSEIVYGNLLYPQDDTPDEVVLSSIRAALDAGVTTFDTADVYGMFRSESLLGRALAGTPREELVLCTKVGMPTGFGPNGRGLSRKHVMESVDGSLRRLRVDHIDVYTAHRYDPATPLEELMWTFSDLVRAGKILYVGMSEWPVERIAEAAGIGARLGVPVICHMPRYSMLWRAPEAEVIPACRDLGIGQICYFTLEQGVLTGKYAPGAPPPAGSRATAPKGGRAPLMRRWLDDDKVLGRVERLRPLAEEAGLTTAHLAWVLQNPAVSGAVIGSFNAEQVLANAESAGVRLETDLLVRIDEVLGDSVVHDEE
For B1, the stoichiometry N – broadly, the number of molecules, sites or subunits per partner or assembly – in “crystal structure” was 8.

B2: MtmW (enzyme, Streptomyces argillaceus, UniProt Q194Q1 1-326, looked up)
chain: MVAVEFRSLGRSGLSVSEIVYGNLLYPQDDTPDEVVLSSIRAALDAGVTTFDTADVYGMFRSESLLGRALAGTPREELVLCTKVGMPTGFGPNGRGLSRKHVMESVDGSLRRLRVDHIDVYTAHRYDPATPLEELMWTFSDLVRAGKILYVGMSEWPVERIAEAAGIGARLGVPVICHMPRYSMLWRAPEAEVIPACRDLGIGQICYFTLEQGVLTGKYAPGAPPPAGSRATAPKGGRAPLMRRWLDDDKVLGRVERLRPLAEEAGLTTAHLAWVLQNPAVSGAVIGSFNAEQVLANAESAGVRLETDLLVRIDEVLGDSVVHDEE
In the case of B2, the “stoichiometry N” value was around 8 in the data set “SEC” and 8 in the data set “AUC”.
